According to the nanobody polyreactivity screen of Harvey et al. (2022):

Assay: yeast display, Sf9 membrane polyspecificity reagent, FACS + sequencing; frameworks hold sequencing errors
Procedure, shortened: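 Using colony PCR, genes from sorted yeast display clones were amplified, then sequenced on MiSeq at 2 × 250 and filtered by CDR length. The clones had been stained with 10% biotinylated, detergent-solubilized Sf9 membrane reagent for 1 hour at 4 °C and sorted by FACS into low and high (top ~1%) gates on anti-HA and streptavidin fluorescence. Polyreactivity labels come from the gate of origin.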

## QVQLVESGGGLVQAGGSLRLSCAASGFIFPDNAMGWYRQAPGKERELVATITSGGNTYYADSVKGRFTISRDNAKNTVYIQMNSLKPEDTAVYYSAAEWDYYDYDWYIAWTIDYWGQGTQVTVSS
  polyreactivity (PSR sort gate): low polyreactivity

## QVQLVESGGGLVQAGGSLRLSCAASGRIFVGNAKGWYRQAPRKERELVAAIDESGGSTYYADSVKGRFTISRDNAKTTVYLQMNSLKPEDTAGYYCNAVWFWLRYYKYEYWGQGTQVTVSS
  polyreactivity (PSR sort gate): high polyreactivity

## QVQLVESGGGLVQAGGSLRLSCAGSGSTILYYVMGWYRQAPGKARELVAAITGTGGRTYYADSVKGRFTISRDNAKNTVYLQMNSLKPEDTAVYYCAADGKFEYDYWGQGTQVTVSS
  polyreactivity (PSR sort gate): low polyreactivity

## QVQLVESGGGLVQAGGSLRLSCAASGIIFITYAMGWYRQAPGKERELVAAITNSGGGTYYADSVKGRFTISRDNAKNTVYLQMNILKPEATAVYYCAARKTAYGYRYDYWGQGTQVTVSS
  polyreactivity (PSR sort gate): high polyreactivity

## QVQLVESGGGLVQAGGSLRLSCAASGFIFNAYPMGWYRPAPGKERELVAAISSSGGRTYYADSVKGRFTISRDNAKNTVYLHMNSLKPEDTAVYYCNADKNSIIKLRGYYYWGQGTQVTVSS
  polyreactivity (PSR sort gate): high polyreactivity

## QIQLVESGGGLVQAGGSLRLSCAASGRIFFRNAMGWYRQAPGKERELVAGITWSGGSTYYADSVKGRFTISRDNAKNTVYLQMNSLKPEDTAVYYCNAVWRYRVLCDYWGQGTQVTVSS
  polyreactivity (PSR sort gate): high polyreactivity

## QVQLVESGGGLVQAGGSLRLSCAASGRIFGYNAMGWYRQAPGKERELVAVITYSGGSTYYADSVKGRFTISRDNAKNTVYLQMNSLKPEDTAVYYCNARPIDRYSGSGKQWPDYYYWGQGTQVTVSS
  polyreactivity (PSR sort gate): low polyreactivity

## QVQLVESGGGLVQAGGSLRLSCAASGSIFFVNAMGWYRQAPGKERELVAAITWNAGRTYYADSVKGRFTISRDNAKNTVYLQMNSLKPEDTAVYYCNARAYYSSAIYDYWGQGTQVTVSS
  polyreactivity (PSR sort gate): low polyreactivity

## QVQLVESGGALVQAGGSLRLSCAASGSISWKNAMGWYRKAPGKERELVAAISSTVTYYADSVKGRFTISRDNAKNTVYLQMNRLKPADTAVYYCAAEYLAYTTLYTGDYWGQGTQVTVSS
  polyreactivity (PSR sort gate): low polyreactivity

## QVQLVESGGGLVQAGGSLRLSCAASGSIFVRNAMGWYRPAPGKERELVADITSRGSSTYYADSVKGRFTISRDNAKNTVYLQMNSLKPEDTAVYYCNAVRYYVRTYIYRHDRGMDYWGQGTQVTVSS
  polyreactivity (PSR sort gate): low polyreactivity

## QVQLVESGGGLVQAGGSLRLSCAASGSTFVFYAMGWYRQAPGKERELVAGISDSGGNTYYADSVKGRFTISRDNAKNTVYLQMNSLKPEDTAVYYCATRYPYYPFYVGIYELDYWGQGTQVTVSS
  polyreactivity (PSR sort gate): low polyreactivity

## QVQLVESGGGLVQAGGSLRLSCAASGRIFVLNAMGWYRQAPGKERELVAAISGSGSRTYYADSVKGRFTISRDNAKNTVYLQMNSLKPEDTAVYYCNTVSRRSEHTYDYWGQGTQVTVSS
  polyreactivity (PSR sort gate): high polyreactivity

## QVQLVESGGGLVQAGGSLRLSCAASGSIFGWYAMGWYRQAPGKERELVASIRKSGGSTYYADSVKGRFTISRDNAKNTVYLQMNSLKPEDTAVYYCAAERYKNGAGQRKYAYDYWGQGTQVTVSS
  polyreactivity (PSR sort gate): high polyreactivity

## QVQLVESGGGLVQAGGSLRLSCAASGFTLYRYAMGWYRQAPGKERELVAAISNSGGSTYYADSVKARFTISRDNAKNTVYLQMNSLKPEDTAVYYCAADPGYNVYGYYYWGQGTQVTVSS
  polyreactivity (PSR sort gate): high polyreactivity

## QVQLVESGGGLVQAGGSLRLSCAASGSIIYFYAMGWYRPAPGKERELVAAISITSASTYYADSVKGRFTISRDNAKNTVYLQMNSLKPEDTAVYYCAAEYYYVDWIYDYWGQGTQVTVSS
  polyreactivity (PSR sort gate): high polyreactivity

## QVQLVESGGGLDQAGGSLRLSCAASGFTFRWYAMGWYRQAPGKERELVAAISRGGNTNYADSVKGRFTISRDNAKNTVYLQMNSLKPEDSAVYYCARNTGPYLGYYHRYYWGHGTQVTVSS
  polyreactivity (PSR sort gate): high polyreactivity

## QVQLVETGGGLVQAGGSLRLICAASGSIFQGNVMGWYRQAPGKERELVAAISSGGRTYYADSVKGRFTISRDNAKNTVYLQMNSLKPEDTAVYYCAASWLTSYAYIMYYWGQGTQVTVSS
  polyreactivity (PSR sort gate): high polyreactivity

## QVQLVESGGGLVQAGGSLRLSCAASGINFGRNAMGWYSQAPGKERELVAAITRRGGRTNYADSVKGRFTISRDNAKNTVYLQMNSLKPEDNAVYYCNAHGRPAEAGYDYWGQATQVTVSS
  polyreactivity (PSR sort gate): high polyreactivity

## QVQLVESGGGLVQAGGSLRLSCAACGSTFLYYAMGWYRQAPGKERELVAGISWDGTSTYYADSVKGRFTISRDNAKNSVYLQMNSLKPEDTAVYYCAAFGWSRVYHWRFEWGQGTQVTVSS
  polyreactivity (PSR sort gate): low polyreactivity

## QVQLVESVGGLVQAGGSLRLSCAASGSTFDDNAMGWYRQAPGKERELVASITYRGGSTYYADSVKGRFTISRDNAKNTVYLQMNSLKPEDTAVYYCAKGHYFKYDYWGQGTQVTVSS
  polyreactivity (PSR sort gate): low polyreactivity

## QVQLVESGGGLYQAGGSLRLSSAASGRIFPWNTMGWYRQAPGKERELVAGINNGDRTYYADSVKGRFTISRDNAKNTVYLQMNSQKPEDTAVYYCAVDTWYFLFQYGYYQEGDYWGQGTQVTVSS
  polyreactivity (PSR sort gate): low polyreactivity

## QVQLVESVGGLVQAGGSLRLSSAASGYTSNIYAMGWYRQAPGTERELVASIRGRSGSTYYADSVKGRFTISRDNAKNSVYLQMNSLKPEDTAVYYCAGSRPWDFYRFGFDYWGQGTQVTVSS
  polyreactivity (PSR sort gate): high polyreactivity

## QVQLVESGGGLVQAGGSLRLSCAASGGIFSYNAMGWYRQAPGKERELVAAITSSGSTYYADSVKGRFTISRDNAKNTVYLQMNSLKPEDTAVYYCNAVKRNSWIRGYWGQGTQVTVSS
  polyreactivity (PSR sort gate): low polyreactivity

## QVQLVESGGGLVQAGGSLRLSCAASGRTYVDYAMGWYRQAPGKEREFDAAITWSGGSTYYADSVKGRFTISRDYAKNTVYLQMTSLKPEDTEVYYCNRDTNVGVLNYKFYDGPERDYWGQGTQVTVSS
  polyreactivity (PSR sort gate): low polyreactivity

## QVQLVESGGGLVQAGGSLRLSCAASGRIFRVYAMGWYRQAPGKERELVAAISSRGGRTYYADSVKGRFTISRDNAKNTVYLQMNSLKPEDTAVYYCAADGRSSSRATSRYDYWGQGTQVTVSS
  polyreactivity (PSR sort gate): high polyreactivity

## QVQLVESGGGLVQAGGSLRLSCAASGFTFWQYAMGWYRQAPGKERELVAAITSSGTSTNYADSVKGRFTISGDNAKKTVYLQMNSLKPEETAVYYCAADLGYYDLYYWGQGTQVTVSS
  polyreactivity (PSR sort gate): low polyreactivity

## QVQLVESGGGLVQAGGSLRLSCAASGILSLYTMGCSIQAPGKERELVAAISFRGGNTYYADSVKGRFTISRDNAKNTVYLQMNSLKPEDTAVYYCNAVTRPWRRGYDYWGQGTQVTVSS
  polyreactivity (PSR sort gate): high polyreactivity

## QVQLVESGGGLVQAGGSLPLSCAASGSTLSGYAMGWYRQAPGKEREMVAAITKSGGRTYYADSVKGRFTISRDNAKNTVYLQMNSLKPEDTAVYYCAKAYPGTYREYDYWGQGTQVTVSS
  polyreactivity (PSR sort gate): high polyreactivity

## QVQLVESGGGLVQAGGSLRLSCAASGFTFFYYDMGWYRQAPGKERELVADITTGGSTYYADSVKGRFTISRDNAKNTVYLQMNSLKPEDTAVYYCAALLYVSNSYRWWPWDGEDYWGQGTQVTVSS
  polyreactivity (PSR sort gate): high polyreactivity

## QVQLVESGGGLVQAGGSLRLSCAASGTIFYVYAMGWYRQAPGKERELVDAINTSGGSTFYADSVKGRFTISRDNAKNTVYLHMKSLKPEDTAVYYCAAERYRYRSTDTMGYWGQGSQVTVSS
  polyreactivity (PSR sort gate): low polyreactivity

## QVQLVESGGGLVQAGGSLRLSCAASGRTFTGNAMGWYRQAPGKERELVAAISTSGTRTTYADSVKGRFTISRDNAKNPVYLQMTSLKPEDTAVYYCAALRKCLYRTYTYDYWGQGTQVTVSS
  polyreactivity (PSR sort gate): high polyreactivity
